Test results: patent US20100196310A1, “METHODS OF TREATING CANCER BY ADMINISTERING HUMAN IL-18 COMBINATIONS” (SMITHKLINE BEECHAM CORPORATION, priority 2007, published 2010)
Read-outs that look alike come from different tables or passages of the source.

Legend:
[1] = test system: murine colon carcinoma, Colo 26; experiment: IL-18 and 5-FU combination therapy in syngeneic model of murine colon cancer Colo26; assay type: in vivo, BALB/c mice; conditions: monotherapy with 5-FU alone or mIL-18 alone
Method: This study aimed to evaluate the efficacy of mIL-18 (SEQ ID NO:2) combination therapy with 5-fluorouracil (5-FU), as compared to monotherapy with 5-FU, or mIL-18 (SEQ ID NO:2) alone. Our study was performed in a well established syngeneic subcutaneous model of murine colon carcinoma, Colo 26, in BALB/c mice. The dosing with mIL-18 (SEQ ID NO:2) was performed daily with 10 μg/mouse s.c. on days 10-30 after tumor inoculation. The dosing with 5-FU was performed i.p. twice a week in the ascending dose: 27, 45 and 74 μg/mouse.
The data comparing tumor volumes in different treatment groups were evaluated at a selected representative time-point, and were expressed as mean+/−SD (FIG. 21), and as median+/−range (FIG. 22). The data were first checked for normal distribution (Gaussian approximation), and standard deviation values were compared to make sure that there is an equal variance. […] Therefore, a non-parametric test (Kruskal-Wallis analysis and Dunn's comparison test) was used for the statistical evaluation. […] FIG. 24 (median+/−SD) and FIG. 25 (mean+/−SD) show the effect of IL-18 and 5-FU combination therapy in same Colo26 syngeneic colon tumor model. […]
Survival of mice bearing Colo26 in different treatment groups was plotted in a Kaplan-Meyer survival curve analysis, and evaluated by Logrank test, and is shown in FIG. 26. […]

[2] = test system: NK cells; experiment: NK cytotoxicity assay in the EL-4 T-cell lymphoma model; conditions: FIG. 12; 21 hours post-treatment
[3] = test system: EL-4 murine T-lymphoma cells; experiment: IL-18 combination with doxorubicin in EL-4 T cell lymphoma (survival, increase in lifespan); assay type: in vivo, C57/BL/6 mice
Method: Studies were performed in female C57/BL/6 mice. As a general protocol, C57/BL mice were injected I.P. with 0.2 cc of stock EL-4 cells. EL-4 murine T-lymphoma cells were expanded in RPMI w/10% FCS. All animals were randomized to six or seven mice per study group with food and water ad libitum.
EL-4 cells were harvested on day 0, counted and implanted I.P. with 5×10^5 EL-4 lymphoma cells. Animals were randomized to treatment groups of 6/7 animals on Day 3. Doxorubicin was administered IV on Days 3 &10, pos-implantation. mIL-18 (SEQ ID NO:2) was administered S.C. on Days 3-16. The animals were observed daily for toxicity and mortality.
All animals tolerated dosing schedule and levels well by gross observation. On day 16, all dosing was terminated, and median vehicle death occurred on day 17.5. All vehicle mice expired between days 16-18 post-implantation. Increase in lifespan was calculated by study group/vehicle group—1×100%. For mIL-18 (SEQ ID NO:2) combination therapy with doxorubicin in EL-4 T cell lymphoma, the data were analyzed with respect to median survival time and increase in lifespan.

[4] = cited from earlier work
[5] = test system: MOPC-315 plasmacytoma; experiment: IL-18 monotherapy in advanced MOPC-315 plasmacytoma model; assay type: in vivo, mice
[6] = test system: NK cells

O=c1[nH]cc(F)c(=O)[nH]1 [5-FU, 5-fluorouracil, reference compound]
therapeutic effect on tumor growth compared to control [1]: did not show a therapeutic effect better than a control

COc1cccc2c1C(=O)c1c(O)c3c(c(O)c1C2=O)C[C@@](O)(C(=O)CO)C[C@@H]3O[C@H]1C[C@H](N)[C@H](O)[C@H](C)O1 [doxorubicin, Doxorubicin, reference compound]
NK cytotoxicity [2]: impaired | increase in lifespan ([3]; doxorubicin monotherapy, 12 mg/kg, IV days 3 & 10): minimal increase in lifespan

human IL-18: recombinant mature form of human interleukin-18, expressed in a non-pathogenic strain of Escherichia coli
toxicity at the highest dose tested ([4]; 2000 μg/kg administered weekly for up to 24 weeks, patients with renal cell carcinoma and metastatic melanoma): no significant toxicity | maximum tolerated dose ([4]; doses up to 2000 μg/kg weekly for up to 24 weeks): not identified

B1: mIL-18: Recombinant murine IL-18 (SEQ ID NO:2), used in the pre-clinical studies (protein)
chain: NFGRLHCTTAVIRNINDQVLFVDKRQPVFEDMTDIDQSASEPQTRLIIYMYKDSEVRGLAVTLSVKDSKMSTLSCKNKIISFEEMDPPENIDDIQSDLIFFQKRVPGHNKMEFESSLYEGHFLACQKEDDAFKLILKKKDENGDKSVMFTLTNLHQS
modifications: Murine
anti-tumor effect ([5]; advanced tumor, 5 mg/Kg daily for approximately 30 days): reproducible tumor regressions and cure | outcome of rechallenge with parental tumor ([5]; after cure by murine IL-18): tumor rejection | anti-tumor effect in SCID mice ([5]; severe combined immunodeficient mice bearing advanced MOPC-315 tumors, similar schedule): failed to regress | NK cytotoxicity [6]: robust NK cytotoxicity | therapeutic effect on tumor growth compared to control [1]: did not show a therapeutic effect better than a control | increase in lifespan ([3]; IL-18 monotherapy at 1, 5 and 25 ug/dose, S.C. days 3-16): did not show any increase in lifespan
